Publication PMC10945814

Molecular target: Abx(+)D, TcmI-like aromatase/cyclase of the (+)-anthrabenzoxocinone pathway (Actinomycetes sp. MA7150)
Experiment: crystal structure

Abx(+)D, TcmI-like aromatase/cyclase of the (+)-anthrabenzoxocinone pathway (enzyme)
stoichiometry N: 2
